Experimental findings from paper PMC11161652, “ASXLs binding to the PHD2/3 fingers of MLL4 provides a mechanism for the recruitment of BAP1 to active enhancers” (Nature Communications, 2024) are described below.

Assay [1] concerns MLL4PHD2/3 or MLL3PHD2/3 mutants. The assay is described as follows: GST pull-down, mutated MLL3/4PHD2/3. The settings on record: mutated GST-MLL3/4PHD2/3; HEK293FT lysate, 3 h at 4 °C, western blot; n = 3. The assay is classed as binding, human. The protocol:
(§1) Pull-down assays were performed by mixing resin-bound GST-MLL3PHD2/3 and GST-MLL4PHD2/3 (wild type and mutants) with lysates of HEK293FT expressing Myc-ASXL1, Myc-ASXL2 or Myc-ASXL2ΔMBH. Pellets of HEK293FT cells transfected with the appropriate pDEST expression construct (15 μg/dish using polyethylenimine (PEI)) were lysed with 10 times their volume of lysis buffer (50 mM Tris pH 7.3, 100 mM NaCl, 1 mM DTT, 1 mM EDTA, 1 mM PMSF, 0.1% Tween20, 1/100 anti-protease (Sigma)) and sonicated with a probe sonicator (Branson digital sonifier 450) calibrated at 40% amplitude for 3–4 rounds during 40–60 s. Lysates were then centrifuged in a Sorvall Lynx 6000 (rotor: F21-8x50Y) at 15,000 RPM during 20 min. Approximatively 9 μg of purified GST-fusion proteins bound to GSH resin (Sigma, G4510) were used for each condition. Final volume of GSH resin was adjusted to 30 μl per condition with empty GSH beads and incubated with 1.5 mL of HEK293FT lysate expressing Myc-ASXL1, Myc-ASXL2 or Myc-ASXL2ΔMBH for 3 h at 4 °C on a rotative system. A fraction of the reaction mixture (80 μL) was collected as the input. After the incubation, beads were washed 5 times and mixed with 100 μL of Laemmli buffer. Samples were loaded on 8% or 15% SDS-acrylamide gels and processed for western blotting.
Background: In western blotting, separated proteins are transferred to a membrane and probed.

Assay [2] deals with H2AK119. Put plainly: H2AK119 deubiquitination assay. In kind it is biochemical, human. The settings on record: purified complexes on human chromatin, 37 °C, 3 or 6 h, immunoblot.
Procedure: The deubiquitination reactions were done by adding equivalent amounts of ASXL2 WT or ΔMBH (4 μl E1-F) native complexes purified from K562 cells to 0.5 μg of chromatin enriched extracts from K562 cells, incubated at 37 °C in 50 mM Tris-HCl pH 7.3, 50 mM NaCl, 1 mM MgCl2, 1 mM DTT, 1 mM PMSF, 10 μg/ml Leupeptin, 10 μg/ml Pepstatin A, 25 μg/ml Aprotinin. After 3 or 6 h incubation, 4X Laemmli buffer was added, the samples run on 15% SDS-PAGE and transferred on nitrocellulose membrane. Immunoblotting was performed with an anti-H2AK119ub (Cell Signaling, D27C4, rabbit polyclonal) diluted 1:2000 followed by HRP conjugated secondary goat anti-rabbit antibody (Sigma) used at a 1:10,000 dilution. The immunoblots were visualized using a Western Lightning plus-ECL reagent (Perkin-Elmer). Anti-H3 (Abcam, Ab1791, rabbit polyclonal) was used at a 1:50,000 dilution.
Cell pellets were harvested 2 days post-transfection and lysed with 10 times their own volume with EB300 lysis buffer (50 mM Tris pH 7.3, 300 mM NaCl, 0.5% Triton X100 (V/V), 5 mM EDTA, 50 mM NaF, 1 mM Na3VO4 (activated), 10 mM Beta-glycerol-phosphate, 1 mM DTT, 1 mM PMSF, 1/100 anti-protease (Sigma)). Lysates were incubated on ice for 30 min before centrifugation in a Sorvall Lynx 6000 (rotor: F21-8x50Y) at 15,000 RPM during 20 min. Supernatants were collected and diluted with EB0 (50 mM Tris pH 7.3, 0.5% Triton X100 (V/V), 5 mM EDTA, 50 mM NaF, 1 mM Na3VO4, 10 mM Beta-glycerol-phosphate, 1 mM DTT, 1 mM PMSF, 1/100 anti-protease) to adjust the final concentration of NaCl to 150 mM. Agarose anti-FlagM2 beads (40 μL) (Sigma, A2220) were added to each lysate and incubated overnight at 4 °C on a rotative system. The next day, beads were washed 5 times with the wash buffer (50 mM Tris pH 7.3, 150 mM NaCl, 0.5% Triton X100 (V/V), 1/500 anti-protease, 1 mM DTT, 1 mM PMSF). […] Following three elutions of 2 h each, the pooled fractions were incubated with 40 μL of anti-HA beads (Sigma A2095) overnight at 4 °C on a rotative system. […]
Assay [3] has as its system active enhancer upstream of GRHL2 gene in K562 ASXL2 KD cells. Put plainly: ChIP-qPCR at active enhancer upstream of GRHL2. The settings on record: K562 ASXL2 KD cells complemented from AAVS1; IP/input corrected for total H3; three biological replicates. In kind it is cell-based, human. The source says:
K562 cell lines with knocked down expression of endogenous ASXL2 were obtained after double infection of lentivirus expressing Cas9 and 4 different gRNAs targeting the end of exon 1 (pLENTI_CRISPR_V2, co-selection by FACS with GFP). Clone 1 L was selected (obtained with gRNA 1: 5′-[…]-3′ cutting at the very end of exon 1) for transfection of WT and DMBH ASXL2 vectors for integration and stable expression from the AAVS1 safe harbor, as described for the tagged K562 cell lines used for purification. Expression levels of endogenous ASXL2, WT and ΔMBH ASXL2 were monitored by running SDS-PAGE and transferring onto nitrocellulose membrane. Anti-FLAG M2 conjugated to horseradish peroxidase (A8592, Sigma) was used at 1:10,000 dilution and anti-ASXL2, at 1:2,000 (Cell Signaling (E623X), CS71257, lot:1). Immunoblots were visualized using a Western Lightning plus ECL reagent (Perkin-Elmer).
Crosslinked chromatin from K562 cells and immunoprecipitations were prepared as previously described. For chromatin immunoprecipitation, 100 μg of chromatin was incubated with 2 μg anti-H2AK119ub (Cell Signaling, 8240S, D27C4 lot:9) or 3 μg anti-H3 (Abcam, ab1791, lot GR3421644-1), 2 μg anti-H3Kme1 (Abcam, ab8895, lot GR442591-1), 2 μg anti-H3K27ac (Thermo Fisher, MA5-23516, lot: ZA4181671) or 0.3 μg anti-H3K27me3 (Cell Signaling, C36B11, 9733 S lot:19) antibodies overnight at 4 °C. 25 μl of Protein A Dynabeads were then added to each sample, and the mixtures were incubated at 4 °C for 4 h. The beads were washed extensively and eluted with 1% SDS and 0.1 M NaHCO3. Cross-linked samples were reversed by heating overnight at 65 °C in the presence of 0.2 M NaCl. Samples were then treated with RNase A and proteinase K for 2 h, and DNA was recovered using MinElute PCR purification Kit (Qiagen, 28004) according to the manufacturer’s instructions. Quantitative real-time PCR corrected for primer efficiencies in the linear range was performed using SYBR Green I (Roche, 04877352001) on a LightCycler 480 (Roche). Primers for 5′ end of active enhancer: Fwd: 5′-[…]; Rev: 5′-[…]; For 3′ end: Fwd: 5′-[…], Rev: 5′-[…].
(In general: In qPCR the cycle at which signal appears reflects the starting amount.)

Assay [4] concerns D372K/D400K MLL3PHD2/3 mutant. The assay is described as follows: GST pull-down, D372K/D400K MLL3PHD2/3. In kind it is binding, human. The following applies: D372K/D400K GST-MLL3PHD2/3; HEK293FT lysate, western blot. The protocol:
as §1

Assay [5] has as its system H3K4 (recombinant histone octamers or mono-nucleosomes). Put plainly: H3K4 histone methyltransferase assay. In kind it is biochemical, human. The following applies: purified complexes, 50 μM S-adenosyl-L-methionine, 8 h at 30 °C, n = 2. How it is done: Equivalent amounts of purified ASXL2 WT and ΔMBH complexes were incubated with 0.5 μg of reconstituted recombinant mono-nucleosomes or histone octamers as substrates. All HMT assays were performed in 50 mM Tris-HCl pH 8, 100 mM KCl, 5 mM MgCl2, 0.1 mM DTT, 10% glycerol in the presence of 50 μM S-adenosyl-L-methionine (Sigma, A7007). After an 8 h incubation at 30 °C, 4X Laemmli buffer was added, the samples run on 15% SDS-PAGE and transferred on nitrocellulose membrane. Immunoblotting was performed with an anti-H3K4me1 (Ab8895, rabbit polyclonal) diluted 1:1000 followed by HRP conjugated secondary goat anti-rabbit antibody (Sigma) used at a 1:10,000 dilution. The immunoblots were visualized using a Western Lightning plus-ECL reagent (Perkin-Elmer). Anti-H4 (Abcam, Ab7311, rabbit polyclonal) was used at a 1:2,500 dilution.

Assay [6] deals with PR-DUB complex. Put plainly: Tandem affinity purification: association with PR-DUB complex. In kind it is cell-based, human. The settings on record: K562 soluble nuclear extracts, 3Flag-2Strep tag, western blot and mass spectrometry. The protocol:
(§2) Isogenic K562 cell lines expressing 3xFlag2xStrep-tagged ASXL2 WT and ΔMBH (aa 650-670), were generated by integration at the AAVS1 safe harbor locus after DSB induction and recombination targeted by co-transfection with a ZFN expression plasmid, as previously described. 2 × 10^5 cells were transfected with 400 ng of ZFN expression vector and 4 μg of donor constructs. Selection and cloning were performed in RPMI medium supplemented with 0.5 μg/mL puromycin starting 2–3 days post transfection. Clones were obtained by limiting dilution and expanded before harvest for western blot analysis.
(§3) For purification of native complexes, after large-scale expansion of K562 clones, affinity purifications of tagged ASXL2 WT and ΔMBH (aa 650-670) were performed on nuclear extracts as previously described. Briefly, nuclear extracts were prepared following standard procedures and pre-cleared with CL6B Sepharose beads. […] Typically, 5–15 μl of the elutions (1–3% of total) was loaded on NuPAGE 4–12% Bis-Tris gels (Invitrogen) and analyzed by silver staining and western blots. […] Purified fractions were prepared and analyzed at the Proteomics Platform of the Quebec Genomic Center using an Orbitrap Fusion mass spectrometer (Thermo Fisher Scientific) as previously described. […]

The test system of assay [7] is MLL3/4 complexes. Put plainly: Tandem affinity purification: interaction with MLL3/4 complexes. In kind it is cell-based, human. The following applies: K562 soluble nuclear extracts, 3Flag-2Strep tag, western blot and mass spectrometry. The protocol:
as §2, §3

The subject of assay [8] is GST-MLL4PHD2/3. Put plainly: GST pull-down, WT MLL4PHD2/3. The assay is classed as binding, human. The following applies: WT GST-MLL4PHD2/3; HEK293FT lysate, 3 h at 4 °C, western blot; n = 3. How it is done:
as §1

The test system of assay [9] is GST-MLL3PHD2/3. The assay is described as follows: GST pull-down, WT MLL3PHD2/3. The following applies: WT GST-MLL3PHD2/3; HEK293FT lysate, 3 h at 4 °C, western blot; n = 3. In kind it is binding, human. The protocol:
as §1

B1: full-length ASXL2: full length wild type ASXL2 expressed in HEK293FT or K562 cells (protein)
chain: MREKGRRKKGRTWAEAAKTVLEKYPNTPMSHKEILQVIQREGLKEIRSGTSPLACLNAMLHTNSRGEEGIFYKVPGRMGVYTLKKDVPDGVKELSEGSEESSDGQSDSQSSENSSSSSDGGSNKEGKKSRWKRKVSSSSPQSGCPSPTIPAGKVISPSQKHSKKALKQALKQQQQKKQQQQCRPSISISSNQHLSLKTVKAASDSVPAKPATWEGKQSDGQTGSPQNSNSSFSSSVKVENTLLGLGKKSFQRSERLHTRQMKRTKCADIDVETPDSILVNTNLRALINKHTFSVLPGDCQQRLLLLLPEVDRQVGPDGLMKLNGSALNNEFFTSAAQGWKERLSEGEFTPEMQVRIRQEIEKEKKVEPWKEQFFESYYGQSSGLSLEDSKKLTASPSDPKVKKTPAEQPKSMPVSEASLIRIVPVVSQSECKEEALQMSSPGRKEECESQGEVQPNFSTSSEPLLSSALNTHELSSILPIKCPKDEDLLEQKPVTSAEQESEKNHLTTASNYNKSESQESLVTSPSKPKSPGVEKPIVKPTAGAGPQETNMKEPLATLVDQSPESLKRKSSLTQEEAPVSWEKRPRVTENRQHQQPFQVSPQPFLNRGDRIQVRKVPPLKIPVSRISPMPFHPSQVSPRARFPVSITSPNRTGARTLADIKAKAQLVKAQRAAAAAAAAAAAAASVGGTIPGPGPGGGQGPGEGGEGQTARGGSPGSDRVSETGKGPTLELAGTGSRGGTRELLPCGPETQPQSETKTTPSQAQPHSVSGAQLQQTPPVPPTPAVSGACTSVPSPAHIEKLDNEKLNPTRATATVASVSHPQGPSSCRQEKAPSPTGPALISGASPVHCAADGTVELKAGPSKNIPNPSASSKTDASVPVAVTPSPLTSLLTTATLEKLPVPQVSATTAPAGSAPPSSTLPAASSLKTPGTSLNMNGPTLRPTSSIPANNPLVTQLLQGKDVPMEQILPKPLTKVEMKTVPLTAKEERGMGALIATNTTENSTREEVNERQSHPATQQQLGKTLQSKQLPQVPRPLQLFSAKELRDSSIDTHQYHEGLSKATQDQILQTLIQRVRRQNLLSVVPPSQFNFAHSGFQLEDISTSQRFMLGFAGRRTSKPAMAGHYLLNISTYGRGSESFRRTHSVNPEDRFCLSSPTEALKMGYTDCKNATGESSSSKEDDTDEESTGDEQESVTVKEEPQVSQSAGKGDTSSGPHSRETLSTSDCLASKNVKAEIPLNEQTTLSKENYLFTRGQTFDEKTLARDLIQAAQKQMAHAVRGKAIRSSPELFSSTVLPLPADSPTHQPLLLPPLQTPKLYGSPTQIGPSYRGMINVSTSSDMDHNSAVPGSQVSSNVGDVMSFSVTVTTIPASQAMNPSSHGQTIPVQAFSEENSIEGTPSKCYCRLKAMIMCKGCGAFCHDDCIGPSKLCVSCLVVR
modifications: left off: Myc, end not stated, kept
notes: full length wild type ASXL2 expressed in HEK293FT or K562 cells
As for B1, the association in pull-down result was “not with the MLL4PHD2/3 or MLL3PHD2/3 mutants” in assay [1], “unable to bind full-length ASXL2” in [4], “detected” in [8] and “detected” in assay [9]. Besides, the “de-ubiquitination of H2AK119” value in assay [2] was “efficient and equivalent de-ubiquitination of H2AK119”. Further, the H2AK119ub level entry in assay [3] was “decrease in H2AK119ub level at this enhancer”. Further, the H3K4me1 level result in [3] is “not affected”. The “mono-methylation of H3K4” value in assay [5] was “clearly detected”. Moreover, in [6], the “association with PR-DUB complex” value was “stably associates with the expected components of the PR-DUB complex”. The “interaction with MLL3/4 complexes” value in [7] is reported as “co-fractionation of the PR-DUB complex with the components of the MLL3/4 complexes”.
